Reference: PMC2713256, “Tousled kinase TLK1B counteracts the effect of Asf1 in inhibition of histone H3–H4 tetramer formation” (BMC Research Notes, 2009)

Legend:
[1] = molecular target: histone H3–H4 dimer (bovine | human) (UniProt P68432); experiment: cross-linking; combinations of H3, H4, Asf1 and TLK1B in equivalent amounts, no ATP, 5 min at room temperature in 50 mM phosphate buffer pH 7.2; 3 mM formaldehyde 5 min on ice, stopped with 50 mM glycine; SDS-PAGE, blots for H3, H4, Asf1 and TLK1B
[2] = molecular target: T1, recombinant human TLK1B (GST-TLK1B) (human, UniProt Q9UKI8-3 1-549); experiment: pull-down; GST-TLK1B (5 ug with varying amounts of Asf1, or 1 ug each with and without 10 or 100 uM ATP and 1 mM MgCl2), 10 min at room temperature, adsorbed on GSH-Sepharose; bound and unbound fractions on 10% SDS-PAGE stained with Coomassie blue; details: both partners purified
T1 construct: Named GST-TLK1B in the pull-downs and only TLK1B in the cross-linking reactions; also called Tousled kinase TLK1B; source: recombinant, prepared as described previously [10]
T1 sequence (looked up): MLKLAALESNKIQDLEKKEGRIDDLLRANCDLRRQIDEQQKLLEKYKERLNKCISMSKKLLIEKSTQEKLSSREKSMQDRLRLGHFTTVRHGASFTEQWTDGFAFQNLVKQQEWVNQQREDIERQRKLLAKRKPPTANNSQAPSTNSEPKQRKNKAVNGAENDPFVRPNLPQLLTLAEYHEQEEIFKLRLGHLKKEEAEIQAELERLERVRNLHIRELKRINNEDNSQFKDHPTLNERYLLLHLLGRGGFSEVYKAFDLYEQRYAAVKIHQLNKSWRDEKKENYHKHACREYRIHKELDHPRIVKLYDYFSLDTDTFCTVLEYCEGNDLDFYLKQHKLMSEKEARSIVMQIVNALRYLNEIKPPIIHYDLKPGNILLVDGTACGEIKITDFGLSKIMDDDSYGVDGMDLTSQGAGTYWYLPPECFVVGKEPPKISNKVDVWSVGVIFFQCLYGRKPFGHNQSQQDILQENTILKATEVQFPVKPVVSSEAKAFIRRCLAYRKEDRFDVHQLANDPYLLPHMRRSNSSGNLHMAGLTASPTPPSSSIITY

B1: recombinant human Asf1B (natural protein, UniProt Q9NVP2 1-202, looked up)
chain: MAKVSVLNVAVLENPSPFHSPFRFEISFECSEALADDLEWKIIYVGSAESEEFDQILDSVLVGPVPAGRHMFVFQADAPNPSLIPETDAVGVTVVLITCTYHGQEFIRVGYYVNNEYLNPELRENPPMKPDFSQLQRNILASNPRVTRFHINWDNNMDRLEAIETQDPSLGCGLPLNCTPIKGLGLPGCIPGLLPENSMDCI
notes: Asf1B, histone H3-H4 chaperone, human, recombinant; source: recombinant, prepared as described previously [10]
**Q.** How did the percent inhibition of H3–H4 tetramer formation [1] turn out when B1 was run?
**A.** 57%

**Q.** And the “stoichiometry N” value [2]?
**A.** 1
